Results reported in patent US20220273713A1, “METHOD OF INHIBITING OR ACTIVATING GAMMA DELTA T CELLS” (The University of Melbourne, priority 2019, published 2022).
Where “and” joins values, the source holds several entries; their conditions need not be identical. Equal entries are not always repeated.

How the values were obtained:
Vγ9Vδ2 cells = assay: Luminex (Vγ9Vδ2): cytokine/chemokine secretion by pre-expanded Vγ9Vδ2 cells; type: cell-based, human; conditions: for IL-4 / IL-8 / GMCSF / ICAM-1 / IFNγ / IL-13 / IL-17A / MIP-1a / MIP-1b / TNFα / sE-selectin / sP-Selectin: 16 hrs, antibodies 10 μg/ml, Zoledronic acid 4 μM, HMBPP 0.5 ng/ml, duplicates, 0 set to 0.1;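 as to all read-outs here: Vγ9Vδ2 cells purified from PBMC, activated 48 h with CD3 and CD28 plus IL-2, expanded 14 days in IL-2, then thawed and rested overnight in IL-2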
Procedure: Briefly, Vγ9Vδ2 cells were isolated from 1 healthy donor (Red Cross Australia) and 1 cancer patient derived PBMC using TCRγ/δ+ T Cell Isolation Kit (Miltenyi). Cells were stimulated for 48 hours in TCRPMI supplemented with 100u/ml IL-2, CD3 (10 μg/ml) and CD28 (1 μg/ml). Cells were washed and grown for 14 days in TCRPMI supplemented with 100u/ml IL-2 at 37 degrees C. and 5% CO2, and then frozen down. […] Vγ9Vδ2 were defrosted and rested overnight in TCRPMI supplemented with 50u/ml IL-2 at 37 degrees C. and 5% CO2. […] All samples were run with appropriate controls and standards.

[1] = system: LM-MEL-62 and LM-MEL-75 melanoma cells; assay: Tumor killing/inhibition assay: γδ T cells with melanoma cells 2:1, MTS and CD25; type: cell-based, human; conditions: γδ T cells : melanoma cells 2:1, three days, antibody 10 ug/ml
Procedure: In the following experiments, γδ T cells were enriched by MACS using PE-Cy7-conjugated anti-γδTCR followed by anti-phycoerythrin-mediated magnetic bead purification (Miltenyi Biotec). After enrichment CD3^+ Vδ2^+γδ T cells were further purified by sorting using an Aria III (BD). […] LM-MEL-62 and LM-MEL-75 melanoma cells were plated out 1×10^4 per well in a 96 well flat-bottom plate In RPMI1640 media supplemented with 10% FBS and left to adhere overnight. […] All conditions were repeated in triplicate. Cells were incubated at 37 degrees and on day 3 Vd2+ cells were acquired by flow cytometry. Live cells were gated and activation determined by analysis of CD25 expression. Melanoma cell viability was determined by MTS assay. MTS reagent was added to RPMI media at a 1:5 ratio and 100 ul added per well. Cells were incubated at 37 degrees for 30 minutes and the plate was read on a Spectrostar nano plate reader at 490 nm. […] Cultures were performed with γδ T cells and melanoma cells (LM-MEL-75 or LM-MEL-62) in a 2:1 ratio.

[2] = γδT cells from a healthy donor, listed as 259
[3] = γδT cells from patient 1 (melanoma patient), listed as 259

B1: antibody 259: agonistic anti-BTN2A1 antibody; VL SEQ ID NO: 156, VH SEQ ID NO: 160 (antibody, V domains shown)
VH: EVQLLESGGGLVQPGGSLRLSCAASGFTFSSYAMQWVRQAPGKGLEWVSRIGPSGGGTMYADSVKGRFTISRDNSKNTLYLQMNSLRAEDMAVYYCARDLGGLSVLFDYWGQGTLVTVSS
VL: QSELTQPPSASETPGQRVTISCSGSSSNIGSNTVSWFQQLPGSAPRLLIYNDHRRPSGVPDRFSGSKSGTSASLVISGLQSQDEADYYCSAWDDSLNGVVFGGGTKLTVL
modifications: amino acid sequence of the VH of antibody 259; amino acid sequence of the VL of antibody 259
cytokine/chemokine secretion, in words (Vγ9Vδ2 cells; across both donors): substantial increase in multiple analytes | cytokine/chemokine secretion, in words (Vγ9Vδ2 cells; healthy donor derived Vγ9Vδ2 cells, vs isotype (BM4)): no IL-4 was detected | IL-4 (Vγ9Vδ2 cells; γδT cells from a healthy donor): 0.1 pg/mL | IL-8 (Vγ9Vδ2 cells; γδT cells from a healthy donor): 0.1 pg/mL | GMCSF (Vγ9Vδ2 cells; [2]): 578.23 pg/mL and 608.66 pg/mL | ICAM-1 (Vγ9Vδ2 cells; [2]): 227.66 pg/mL and 226.25 pg/mL | IFNγ (Vγ9Vδ2 cells; [2]): 359.53 pg/mL and 412.2 pg/mL | IL-13 (Vγ9Vδ2 cells; [2]): 23.33 pg/mL and 31.31 pg/mL | IL-17A (Vγ9Vδ2 cells; [2]): 3.7 pg/mL and 4.17 pg/mL | MIP-1a (Vγ9Vδ2 cells; [2]): 301.77 pg/mL and 286.07 pg/mL | MIP-1b (Vγ9Vδ2 cells; [2]): 9757.6 pg/mL and 9064.66 pg/mL | TNFα (Vγ9Vδ2 cells; [2]): 451.81 pg/mL and 481.49 pg/mL | sE-selectin (Vγ9Vδ2 cells; [2]): 259.93 pg/mL and 300.24 pg/mL | sP-Selectin (Vγ9Vδ2 cells; [2]): 2291.35 pg/mL and 2223.07 pg/mL | GMCSF (Vγ9Vδ2 cells; [3]): 1135.87 pg/mL and 1151.41 pg/mL | ICAM-1 (Vγ9Vδ2 cells; [3]): 798.07 pg/mL and 755.13 pg/mL | IFNγ (Vγ9Vδ2 cells; [3]): 598.1 pg/mL and 740.33 pg/mL | IL-4 (Vγ9Vδ2 cells; [3]): 490.79 pg/mL and 389.47 pg/mL | IL-8 (Vγ9Vδ2 cells; [3]): 0.93 pg/mL and 1.06 pg/mL | IL-13 (Vγ9Vδ2 cells; [3]): 399.99 pg/mL and 461.27 pg/mL | IL-17A (Vγ9Vδ2 cells; [3]): 5.86 pg/mL and 6.55 pg/mL | MIP-1a (Vγ9Vδ2 cells; [3]): 317.76 pg/mL and 361.32 pg/mL | MIP-1b (Vγ9Vδ2 cells; [3]): 6921.27 pg/mL and 8238.42 pg/mL | TNFα (Vγ9Vδ2 cells; [3]): 1130.35 pg/mL and 1137.89 pg/mL | sE-selectin (Vγ9Vδ2 cells; [3]): 311.65 pg/mL and 368.09 pg/mL | sP-Selectin (Vγ9Vδ2 cells; [3]): 2170.46 pg/mL and 2424.08 pg/mL | CD25 level of expression on γδ T cells in co-culture [1]: upregulated
